Experiment [1] has as its target T1, Unr CSD789 (A756-D990) (Drosophila, UniProt B7Z0E2 756-990).
T1 sequence (looked up): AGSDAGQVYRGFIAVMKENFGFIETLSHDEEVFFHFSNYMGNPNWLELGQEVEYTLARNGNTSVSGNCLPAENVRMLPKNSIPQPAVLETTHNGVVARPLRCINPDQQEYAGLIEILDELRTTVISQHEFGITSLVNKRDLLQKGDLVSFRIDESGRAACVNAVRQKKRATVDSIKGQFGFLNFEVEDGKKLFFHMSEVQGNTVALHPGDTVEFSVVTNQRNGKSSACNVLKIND
Nature of the experiment: NMR titration.

Experiment [2] deals with T2, Unr CSD78 (A756-K922) (Drosophila, UniProt B7Z0E2 756-922).
T2 sequence (looked up): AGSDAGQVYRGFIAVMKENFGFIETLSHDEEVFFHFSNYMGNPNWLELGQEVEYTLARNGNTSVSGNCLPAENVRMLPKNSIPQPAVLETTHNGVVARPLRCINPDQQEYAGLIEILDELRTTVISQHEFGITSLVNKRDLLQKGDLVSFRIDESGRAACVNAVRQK
The experiment is described as follows: NMR titration.

We go through 1 molecule from article PMC9976900 (Nucleic Acids Research, 2022).

B1: pAbp RRM3 (G176-A263) (domain or fragment)
chain: not shown
On to B1, for which the binding result in experiment [1] and in experiment [2] was “binds” throughout.
